The source of these data is patent US20200347464A1.

In this assay the target is prostate-specific membrane antigen (PSMA) (human) (UniProt Q04609). The experiment in a line: in vivo near-infrared optical imaging of mouse liver, 72 h after Ad-Track-PSMA or Ad-Track-Luciferase, 48 h after 15 or 30 ug J591-IR800.
Sequence of prostate-specific membrane antigen (PSMA) (human) (Q04609 whole entry): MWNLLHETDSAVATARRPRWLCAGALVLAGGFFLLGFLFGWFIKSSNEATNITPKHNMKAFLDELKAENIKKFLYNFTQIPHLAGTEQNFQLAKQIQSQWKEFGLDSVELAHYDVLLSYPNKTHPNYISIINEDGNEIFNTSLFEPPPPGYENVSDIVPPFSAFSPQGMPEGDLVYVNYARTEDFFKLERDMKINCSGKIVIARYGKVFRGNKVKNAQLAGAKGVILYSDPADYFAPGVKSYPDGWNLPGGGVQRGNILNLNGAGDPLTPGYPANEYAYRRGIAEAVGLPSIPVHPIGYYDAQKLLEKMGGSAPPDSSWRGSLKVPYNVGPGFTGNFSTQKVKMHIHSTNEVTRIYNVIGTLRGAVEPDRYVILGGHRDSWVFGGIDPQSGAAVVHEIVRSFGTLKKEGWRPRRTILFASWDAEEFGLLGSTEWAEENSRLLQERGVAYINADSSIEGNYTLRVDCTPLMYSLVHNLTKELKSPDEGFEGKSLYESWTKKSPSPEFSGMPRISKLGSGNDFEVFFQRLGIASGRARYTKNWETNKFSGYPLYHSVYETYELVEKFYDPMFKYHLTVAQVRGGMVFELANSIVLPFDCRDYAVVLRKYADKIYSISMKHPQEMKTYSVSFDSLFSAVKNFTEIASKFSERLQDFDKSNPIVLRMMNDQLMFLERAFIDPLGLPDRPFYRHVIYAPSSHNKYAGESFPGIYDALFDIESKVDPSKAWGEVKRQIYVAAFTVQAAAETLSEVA

With J591 antibody conjugated to IRDye 800CW, the signal-to-noise ratio (PSMA adenovirus relative to control adenovirus, liver) was 3.
